In PMC11779849, “Outside-in engineering of cadherin endocytosis using a conformation strengthening antibody” (Nature Communications, 2025):

What was measured:
[1] = molecular target: T1, human P-cadherin W2A mutant ectodomain (EC1-5) (Homo sapiens, UniProt P22223, point mutant, biotin on the Avi-tag (BirA enzyme)); assay: far-Western, overlay or dot blot; Western blot: purified Pcad ectodomains boiled in SDS-PAGE sample buffer with 2-mercaptoethanol, run on gels, transferred to PVDF; probed with CQY684; details: both partners purified
T1 construct: signal peptide in the construct; Made with the Q5 site-directed mutagenesis kit from the WT ectodomain construct; also called Pcad W2A; W2A Pcad; source: Expi293 suspension cells, transfected, purified from conditioned media (Ni-NTA), biotinylated with BirA; not shown: Avi-tag, C-terminal, kept
T1 sequence (P22223 whole entry, looked up, stated change not applied, the tested form may be a part): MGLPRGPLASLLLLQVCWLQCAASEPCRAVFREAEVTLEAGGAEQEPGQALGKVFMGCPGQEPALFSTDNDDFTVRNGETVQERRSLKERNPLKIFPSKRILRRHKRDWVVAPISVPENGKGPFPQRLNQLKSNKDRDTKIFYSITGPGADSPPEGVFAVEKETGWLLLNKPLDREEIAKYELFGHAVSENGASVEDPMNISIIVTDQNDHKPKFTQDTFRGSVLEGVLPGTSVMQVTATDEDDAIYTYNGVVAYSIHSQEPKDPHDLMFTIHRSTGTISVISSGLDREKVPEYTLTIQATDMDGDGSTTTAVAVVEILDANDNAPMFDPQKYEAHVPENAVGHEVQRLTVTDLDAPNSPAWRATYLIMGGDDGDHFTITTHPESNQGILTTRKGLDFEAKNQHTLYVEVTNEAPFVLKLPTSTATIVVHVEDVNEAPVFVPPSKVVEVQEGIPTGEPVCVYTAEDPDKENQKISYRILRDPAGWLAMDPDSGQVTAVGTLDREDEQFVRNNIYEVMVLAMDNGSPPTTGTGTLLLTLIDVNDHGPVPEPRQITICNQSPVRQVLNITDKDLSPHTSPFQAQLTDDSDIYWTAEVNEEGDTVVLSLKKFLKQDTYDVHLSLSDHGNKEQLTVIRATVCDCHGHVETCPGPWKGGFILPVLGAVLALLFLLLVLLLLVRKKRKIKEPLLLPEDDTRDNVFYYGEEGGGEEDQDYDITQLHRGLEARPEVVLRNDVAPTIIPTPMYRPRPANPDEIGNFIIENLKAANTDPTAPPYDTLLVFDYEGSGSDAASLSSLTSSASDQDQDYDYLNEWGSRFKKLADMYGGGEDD

[2] = molecular target: T2, wild-type human P-cadherin ectodomain (EC1-5) (human, UniProt P22223, biotin on the Avi-tag (BirA enzyme)); assay: single-molecule AFM force spectroscopy; as the -CQY experiment but with 40 nM CQY684 Fab in the buffer (+CQY); Pcad EC1-5 on cantilever and substrate; 1 µm/s; Tris buffer pH 7.5 with 2.5 mM CaCl2; details: both partners purified
T2 construct: signal peptide in the construct; human P-cadherin (placental cadherin), complete extracellular region EC1-5, ectodomain (1-654); Cloned into pcDNA3.1(+); residue numbers W2, K14 count on the mature protein; also called Pcad WT; WT Pcad; source: Expi293 suspension cells, transfected, purified from conditioned media (Ni-NTA), biotinylated with BirA; not shown: Avi-tag, C-terminal, kept
T2 sequence (P22223 108-654): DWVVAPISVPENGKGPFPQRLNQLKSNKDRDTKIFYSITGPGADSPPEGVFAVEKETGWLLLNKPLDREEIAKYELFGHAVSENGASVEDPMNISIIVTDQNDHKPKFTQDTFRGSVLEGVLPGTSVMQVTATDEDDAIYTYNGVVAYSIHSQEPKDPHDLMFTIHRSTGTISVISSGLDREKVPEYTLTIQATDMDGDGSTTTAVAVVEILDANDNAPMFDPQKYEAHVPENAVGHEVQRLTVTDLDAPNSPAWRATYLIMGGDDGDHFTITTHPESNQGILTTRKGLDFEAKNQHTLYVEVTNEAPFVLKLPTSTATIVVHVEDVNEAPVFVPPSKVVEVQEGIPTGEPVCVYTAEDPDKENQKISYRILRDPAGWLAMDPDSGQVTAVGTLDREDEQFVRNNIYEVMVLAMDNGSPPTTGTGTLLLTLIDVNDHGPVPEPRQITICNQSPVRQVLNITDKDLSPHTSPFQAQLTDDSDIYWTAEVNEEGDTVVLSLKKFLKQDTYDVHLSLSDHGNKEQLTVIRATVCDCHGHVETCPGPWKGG

- binding result [1]: binds
- binding result [2]: binds
B1: CQY684 Fab (Fab, V domains shown)
VH: QVQLQQSGPGLVKPSQTLSLTCAISGDSVSSQSAAWNWIRQSPSRGLEWLGRIYYRSKWYNDYALSVKSRITINPDTSKNQFSLQLNSVTPEDTAVYYCARGEGYGREGFAIWGQGTLVTVSS
VL: DIQMTQSPSSLSASVGDRVTITCRASQTISNTLAWYQQKPGKAPKLLIYAASNLQSGVPSRFSGSGSGTDFTLTISSLQPEDFATYYCQQYLSWFTFGQGTKVEIK
notes: variable region cloned into a human IgG Fab backbone; the constant parts of the GenScript human IgG Fab backbone may differ from those in PDB 6ZTR; also called CQY Fab; antibody part of the antibody-drug conjugate PCA062; source: recombinantly generated by GenScript
